{"source": "patent US10239923B2", "about": "“Specific amyloid beta binding peptides and the use of same for treating and diagnosing alzheimer's dementia” (Forschungszentrum Juelich GmbH, priority 2015, dated 2019)", "key": {"[1]": {"target": "T1, Aβ1-42 monomers versus Aβ1-42 oligomers and fibrils (biotinylated, D-enantiomeric, immobilized) (Homo sapiens, UniProt P05067)", "T1 construct": "biotinylated, D-enantiomeric Aβ1-42 monomers", "T1 sequence (P05067 672-713)": "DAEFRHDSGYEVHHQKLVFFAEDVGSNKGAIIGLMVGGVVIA", "experiment": "Monoclonal phage ELISA", "assay_type": "binding", "conditions": "individual phage clones; species immobilized at 320 nM; absorption at 450 nm normalized with 6E10 control; higher = more monomer-specific", "text": "The specificity of the peptide results from the difference in % of the absorption values for the target molecule or the bait (for example A beta monomer) and the normalized absorption values for the competitors (for example A beta oligomers and fibrils) in the monoclonal phage ELISA.\nThe absorption values then constitute the affinity of individual phage clones for a particular immobilized A beta species. Here, the specificity is not dependent on the strength of the affinity, but instead only on the difference of the affinities between the species. […] The terms “competitors” and “target molecule” or “bait” are defined as specified below.\nA method for normalizing the obtained values should therefore be performed. From all absorption values of the individual phage clone in the monoclonal phage ELISA, the values of the phage antibodies tested for cross-reaction can be used as background. This occurs in accordance with the previously immobilized species. The signal values of the phage antibody from the reaction trays with immobilized Aβ1-42 oligomers for this purpose can be removed from the signal values of the individual phage clone from the reaction trays with immobilized Aβ1-42 oligomers. A similar process is then carried out for Aβ1-42 monomers. In this way, a possible background signal of the phage antibody can initially be calculated from the signals of the individual phage clone. […] Only in this way is an equal interpretation of the results particularly in respect of the assessment of the specificity of the individual phage clone possible (see FIG. 2).\nThe affinity of individual phage clones with respect to the target molecule and the competitors was examined by means of ELISA. For this purpose, all three species were immobilized in biotinylated form on a polystyrene surface at streptavidin bound thereon. Since, during the panning rounds, oligomers and fibrils were added at the same time as competitors, these two species were immobilized in the monoclonal phage ELISA, likewise mixed. […] The streptavidin-coated microtiter plates were pre-washed as specified by the manufacturer. […] For immobilization, 100 μl were used per reaction tray and were incubated for 15 minutes at room temperature. After having washed the entire plate(s) twice with 150 μl 1×TBS per reaction tray, a blocking step with 150 μl 1×TBS/0.1% (v/v) Tween-20/1% (w/v) BSA was performed for an hour at room temperature. Three washing steps with 150 μl 1×TBS/0.1% (v/v) Tween-20 then followed per reaction tray. The amplified individual phage clones were mixed 1:1 with 1× TBS/1% (w/v) BSA. The antibody 6E10 was diluted 1:10,000 in 1×TBS/0.1% (v/v) Tween-20. […] After washing five times with 150 μl 1×TBS/0.1% (v/v) Tween-20 per reaction tray, 200 μl 1×TBS/0.1% (v/v) Tween-20 were placed in each reaction tray, and the plate(s) incubated for one hour at room temperature. The solutions were removed and replaced as follows: In all reaction trays that had been incubated previously with individual phage clone dilutions or the batch without phages, 100 μl of a phage antibody diluted 1:5,000 in 1×TBS/0.1% (v/v) Tween-20 were now added. The enzyme horseradish peroxidase (HRP) was coupled to this antibody and later served for the conversion of a substrate (TMB). […] At the same time, 100 μl of a second antibody diluted 1:1,000 in 1×TBS/0.1% (v/v) Tween-20 were now added to all reaction trays that had been previously incubated with the dilution of the 6E10 antibody, said second antibody being able to identify and bind to the 6E10 antibody originating from mice. This antibody is also HRP-coupled and thus allows a quantification of the binding of the first antibody to the immobilized target molecules or the plastics surface of the reaction tray. After one hour of incubation at room temperature, the plate(s) was/were washed 10 times with 150 μl 1×TBS/0.1% (v/v) Tween-20 per reaction tray. The signal was detected by adding the substrate 3,3′,5,5′-tetramethylbenzidine (TMB). […]"}, "[2]": {"target": "Aβ1-42 (Homo sapiens, UniProt P05067)", "sequence (P05067 672-713 limits assumed)": "as the sequence (P05067 672-713) above", "experiment": "ThT test, modulation of Aβ1-42 aggregation", "assay_type": "biochemical", "conditions": "10 μM Aβ1-42, equimolar peptide, versus Aβ1-42 alone = 100%", "text": "FIG. 3: The average relative fluorescence from seven independently performed ThT experiments with standard deviation is shown. The dye Thioflavin T (ThT) binds to β-pleated sheet structures in the batch and thereupon changes its fluorescence spectrum. […] The time in which the logarithmic rise of the fluorescence signal transitioned into a stationary phase was set to 100%."}, "[3]": {"target": "Aβ1-42 species of different size (Homo sapiens, UniProt P05067)", "sequence (P05067 672-713 limits assumed)": "as the sequence (P05067 672-713) above", "experiment": "Density gradient centrifugation, tris-tricine SDS gel and silver staining of Aβ1-42 species", "assay_type": "biochemical", "conditions": "80 μM Aβ1-42 pre-incubated […], 40 μM peptide for 40 minutes", "description": "The batch was then incubated either with or without addition of peptide for a further 40 minutes and was then placed on an iodixanol density gradient. The gradient was then centrifuged, wherein the contents of the sample (Aβ1-42 species of different size) diffused within the gradient in accordance with their size and shape. The gradient was fractionated after centrifugation into 15 fractions (1-15), and the first 14 individual fractions were applied to a tris-tricine SDS gel. The contents per fraction were separated electrophoretically. […] The batch was then incubated either without (A) or with addition of different concentrations of Mosd1 (B=10 μM Mossd1; C=20 μM Mosd1; D=40 μM Mosd1; E=80 μM Mosd1) for a further 40 minutes and was then placed on an iodixanol density gradient. The gradient was then centrifuged, wherein the contents of the sample (Aβ1-42 species of different size) diffused within the gradient in accordance with their size and shape. The gradient was fractionated after centrifugation (1-15), and the individual fractions were applied to a tris-tricine SDS gel. The contents per fraction were separated electrophoretically."}, "[4]": {"test_system": "PC-12 cells", "experiment": "MTT reduction test, Aβ1-42-induced cell toxicity", "assay_type": "cell-based", "conditions": "0.1% TritonX-100, positive control for cell toxicity", "description": "The samples were placed in the culture medium of the cells and were incubated over 24 hours with the cells at 37° C. The viability of the cells was then determined on the basis of an MTT test. Here, a metabolic reactant was supplied to the cells, which reactant could be converted by metabolically active cells (living cells). Formazan crystals are the product of this conversion and can be dissolved. The coloration of the medium after solubilization corresponds to the conversion rate of the reactant and therefore the viability of the cells. Untreated cells (medium, white chequered pattern) served as living control, and the proportion of vital cells was defined as 100%. The values of the other batches were normalized to this value."}, "[5]": {"test_system": "transgenic AD mice", "conditions": "oral administration in drinking water; cited from earlier work"}}, "note": "Square brackets hold non-standard residues; d marks the D form."}
{"substance": "GTMLKFSGMNLT (H-G[dT][dM][dL][dK][dF][dS]G[dM][dN][dL][dT]-NH2; SMILES CSCC[C@@H](NC(=O)CNC(=O)[C@@H](CO)NC(=O)[C@@H](Cc1ccccc1)NC(=O)[C@@H](CCCCN)NC(=O)[C@@H](CC(C)C)NC(=O)[C@@H](CCSC)NC(=O)[C@H](NC(=O)CN)[C@H](C)O)C(=O)N[C@H](CC(N)=O)C(=O)N[C@H](CC(C)C)C(=O)N[C@@H](C(N)=O)[C@H](C)O) [Mosd3]", "values": [{"measurement": "Difference in signal strength between Aβ1-42 monomers (100%) and Aβ1-42 oligomers and fibrils", "setting": "[1]", "result": 59.955, "unit": "%"}, {"measurement": "relative ThT fluorescence (formation of β-pleated sheet structures)", "setting": "[2]", "result": "increase the ThT fluorescence"}, {"measurement": "oligomeric Aβ1-42 species (fractions 4-7)", "setting": "[3]", "result": "reduce"}, {"measurement": "proportions of high-molecular Aβ1-42 species (fractions 10-14)", "setting": "[3]", "result": "increase"}]}
{"substance": "HNWFYWTTEPYD (H-[dH][dN][dW][dF][dY][dW][dT][dT][dE][dP][dY][dD]-NH2; SMILES C[C@H](O)[C@@H](NC(=O)[C@@H](Cc1c[nH]c2ccccc12)NC(=O)[C@@H](Cc1ccc(O)cc1)NC(=O)[C@@H](Cc1ccccc1)NC(=O)[C@@H](Cc1c[nH]c2ccccc12)NC(=O)[C@@H](CC(N)=O)NC(=O)[C@H](N)Cc1c[nH]cn1)C(=O)N[C@@H](C(=O)N[C@H](CCC(=O)O)C(=O)N1CCC[C@@H]1C(=O)N[C@H](Cc1ccc(O)cc1)C(=O)N[C@H](CC(=O)O)C(N)=O)[C@H](C)O) [Mosd4]", "values": [{"measurement": "Difference in signal strength between Aβ1-42 monomers (100%) and Aβ1-42 oligomers and fibrils", "setting": "[1]", "result": 69.154, "unit": "%"}, {"measurement": "relative ThT fluorescence (formation of β-pleated sheet structures)", "setting": "[2]", "result": "only a very small influence"}]}
{"substance": "HTWTTYDYVWRL (H-[dH][dT][dW][dT][dT][dY][dD][dY][dV][dW][dR][dL]-NH2; SMILES CC(C)C[C@@H](NC(=O)[C@@H](CCCNC(=N)N)NC(=O)[C@@H](Cc1c[nH]c2ccccc12)NC(=O)[C@H](NC(=O)[C@@H](Cc1ccc(O)cc1)NC(=O)[C@@H](CC(=O)O)NC(=O)[C@@H](Cc1ccc(O)cc1)NC(=O)[C@H](NC(=O)[C@H](NC(=O)[C@@H](Cc1c[nH]c2ccccc12)NC(=O)[C@H](NC(=O)[C@H](N)Cc1c[nH]cn1)[C@H](C)O)[C@H](C)O)[C@H](C)O)C(C)C)C(N)=O) [Mosd2]", "values": [{"measurement": "Difference in signal strength between Aβ1-42 monomers (100%) and Aβ1-42 oligomers and fibrils", "setting": "[1]", "result": 67.145, "unit": "%"}, {"measurement": "relative ThT fluorescence (formation of β-pleated sheet structures)", "setting": "[2]", "result": "increase the ThT fluorescence"}, {"measurement": "oligomeric Aβ1-42 species (fractions 4-7)", "setting": "[3]", "result": "reduce"}, {"measurement": "proportions of high-molecular Aβ1-42 species (fractions 10-14)", "setting": "[3]", "result": "increase"}]}
{"substance": "LSMNITTVHRWH (H-[dL][dS][dM][dN][dI][dT][dT][dV][dH][dR][dW][dH]-NH2; SMILES CC[C@@H](C)[C@@H](NC(=O)[C@@H](CC(N)=O)NC(=O)[C@@H](CCSC)NC(=O)[C@@H](CO)NC(=O)[C@H](N)CC(C)C)C(=O)N[C@@H](C(=O)N[C@@H](C(=O)N[C@@H](C(=O)N[C@H](Cc1c[nH]cn1)C(=O)N[C@H](CCCNC(=N)N)C(=O)N[C@H](Cc1c[nH]c2ccccc12)C(=O)N[C@H](Cc1c[nH]cn1)C(N)=O)C(C)C)[C@H](C)O)[C@H](C)O) [Mosd11]", "values": [{"measurement": "Difference in signal strength between Aβ1-42 monomers (100%) and Aβ1-42 oligomers and fibrils", "setting": "[1]", "result": 57.671, "unit": "%"}]}
{"substance": "STLHFYTAFLNK (H-[dS][dT][dL][dH][dF][dY][dT][dA][dF][dL][dN][dK]-NH2; SMILES CC(C)C[C@@H](NC(=O)[C@@H](Cc1ccccc1)NC(=O)[C@@H](C)NC(=O)[C@H](NC(=O)[C@@H](Cc1ccc(O)cc1)NC(=O)[C@@H](Cc1ccccc1)NC(=O)[C@@H](Cc1c[nH]cn1)NC(=O)[C@@H](CC(C)C)NC(=O)[C@H](NC(=O)[C@H](N)CO)[C@H](C)O)[C@H](C)O)C(=O)N[C@H](CC(N)=O)C(=O)N[C@H](CCCCN)C(N)=O) [Mosd6]", "values": [{"measurement": "Difference in signal strength between Aβ1-42 monomers (100%) and Aβ1-42 oligomers and fibrils", "setting": "[1]", "result": 67.981, "unit": "%"}]}
{"substance": "TritonX-100 [reference compound]", "values": [{"measurement": "amount of viable cells (untreated cells = 100%)", "setting": "[4]", "result": 1.5, "unit": "%"}]}
{"substance": "VHWDFRQWWQPS (H-[dV][dH][dW][dD][dF][dR][dQ][dW][dW][dQ][dP][dS]-NH2; SMILES CC(C)[C@@H](N)C(=O)N[C@H](Cc1c[nH]cn1)C(=O)N[C@H](Cc1c[nH]c2ccccc12)C(=O)N[C@H](CC(=O)O)C(=O)N[C@H](Cc1ccccc1)C(=O)N[C@H](CCCNC(=N)N)C(=O)N[C@H](CCC(N)=O)C(=O)N[C@H](Cc1c[nH]c2ccccc12)C(=O)N[C@H](Cc1c[nH]c2ccccc12)C(=O)N[C@H](CCC(N)=O)C(=O)N1CCC[C@@H]1C(=O)N[C@H](CO)C(N)=O) [Mosd20]", "values": [{"measurement": "Difference in signal strength between Aβ1-42 monomers (100%) and Aβ1-42 oligomers and fibrils", "setting": "[1]", "result": 45.718, "unit": "%"}]}
{"substance": "VHWDFRQWWQQS (H-[dV][dH][dW][dD][dF][dR][dQ][dW][dW][dQ][dQ][dS]-NH2; SMILES CC(C)[C@@H](N)C(=O)N[C@H](Cc1c[nH]cn1)C(=O)N[C@H](Cc1c[nH]c2ccccc12)C(=O)N[C@H](CC(=O)O)C(=O)N[C@H](Cc1ccccc1)C(=O)N[C@H](CCCNC(=N)N)C(=O)N[C@H](CCC(N)=O)C(=O)N[C@H](Cc1c[nH]c2ccccc12)C(=O)N[C@H](Cc1c[nH]c2ccccc12)C(=O)N[C@H](CCC(N)=O)C(=O)N[C@H](CCC(N)=O)C(=O)N[C@H](CO)C(N)=O) [Mosd12]", "values": [{"measurement": "Difference in signal strength between Aβ1-42 monomers (100%) and Aβ1-42 oligomers and fibrils", "setting": "[1]", "result": 59.012, "unit": "%"}]}
{"substance": "YSFHFEMNMGNY (H-[dY][dS][dF][dH][dF][dE][dM][dN][dM]G[dN][dY]-NH2; SMILES CSCC[C@@H](NC(=O)[C@@H](CC(N)=O)NC(=O)[C@@H](CCSC)NC(=O)[C@@H](CCC(=O)O)NC(=O)[C@@H](Cc1ccccc1)NC(=O)[C@@H](Cc1c[nH]cn1)NC(=O)[C@@H](Cc1ccccc1)NC(=O)[C@@H](CO)NC(=O)[C@H](N)Cc1ccc(O)cc1)C(=O)NCC(=O)N[C@H](CC(N)=O)C(=O)N[C@H](Cc1ccc(O)cc1)C(N)=O) [Mosd13]", "values": [{"measurement": "Difference in signal strength between Aβ1-42 monomers (100%) and Aβ1-42 oligomers and fibrils", "setting": "[1]", "result": 57.246, "unit": "%"}]}
{"substance": "rprtrlhthrnr [Mosd D3]", "values": [{"measurement": "cognitive capabilities", "setting": "[5]", "result": "significantly improved cognitive capabilities"}, {"measurement": "plaques", "setting": "[5]", "result": "much fewer plaques"}]}
